From article PMC4383324
pKd: −log10 of the molar value.

Experiments:
[1] = target: MyrNCS-1 His6 (N-terminally myristoylated NCS-1 with a carboxyl terminal His6-tag) (UniProt P62166); test: micro-batch multi-angle laser light scattering
[2] = target: MyrNCS-1 His6 (N-terminally myristoylated NCS-1 with a carboxyl terminal His6-tag) (UniProt P62166); test: AUC
[3] = target: MyrNCS-1 His6 (N-terminally myristoylated NCS-1 with a carboxyl terminal His6-tag) (UniProt P62166); test: SEC-MALS

pKd [1]: 5.00
pKd [2]: 5.70
stoichiometry N [3]: 2
Substance: MyrNCS-1 His6 (N-terminally myristoylated NCS-1 with a carboxyl terminal His6-tag) (from UniProt P62166 1-190) (natural protein)
